# US6962971B2, “Chemokines and methods for inducing the differentiation of fibroblasts to myofibroblasts” (The Regents of the University of California, priority 2001, dated 2005)
# Where “and” joins values, the source holds several entries; their conditions need not be identical. Identical values can stand only once. Entries after “also recorded” stand apart in the source; their conditions may differ.
# B1: cCAF: CXC chemokine chicken Chemotactic and Angiogenic Factor, full-length, SEQ ID NO:2; purified or synthesized (protein)
# chain: LSQGRTLVKMGNELRCQCISTHSKFIHPKSIQDVKLTPSGPHCKNVEIIATLKDGREVCLDPTAPWVQLIVKALMAKAQLNSDAPL
# modifications: Gallusgallus
# notes: purified or synthesized
# What was measured:
# [1] = tested on: primary chicken embryonic connective tissue fibroblasts; assay: Fibroblast growth assay; assay type: cell-based
# Method: Primary chicken embryonic connective tissue fibroblasts (CEFs) were cultured as previously described in Martins-Green and Feugate (1998). Briefly, these fibroblasts were isolated from 10-day-old chicken embryo body walls, plated at 6×10^6 cells/100 mm plate and cultured for 4 days in 199 medium with 5% donor calf serum, 1% chick serum and 0.3% tryptose phosphate broth. These cultures were passaged once (secondary cultures); the cells were plated at 0.4×10^6 cells/35 mm plate in 199/tryptose phosphate broth and 2% donor calf serum.
# Secondary fibroblasts were plated at 0.4×10^6 cells/35 mm plate and cCAF was added to experimental plates. For each experiment, plating efficiency was determined by trypsinizing plates four hours after plating. Cells were counted with a Coulter particle counter to confirm even plating of cells. The media was replaced approximately every 16 hr with 1 ml of […] 199 medium containing 0.3% tryptose phosphate broth and 2% donor calf serum, and 100-1000 ng cCAF [9-90 nM] or C- or N-peptide [64-640 nM] was added to the experimental plates, whereas, control plates contained media only. On day 3, plates were trypsinized to remove all cells and cells were counted using a Coulter counter. To test for specificity, anti-cCAF rabbit serum was pre-incubated with cCAF (3 μl serum/750 ng cCAF [68 nM] or N-peptide [480 nM]) for 1 hr at room temperature before being added to cells.
# CEFs = assay: Trypan blue staining for necrotic cells; assay type: cell-based; settings: cCAF-treated fibroblasts
# Method: The supernatant of treated and untreated CEFs was collected, the cells centrifuged to a pellet and resuspended in a small volume of medium. 1% trypan blue was added to a final concentration of 0.5% trypan blue. Cells were stained for 5min and then counted in a hemocytometer. Necrotic cells stained blue.
# α-SMA [2] = assay: Immunostaining for α-SMA in fibroblast cultures and collagen gel sections; assay type: cell-based, chicken
# Method: Plates of fibroblasts were treated with cCAF as described previously. After 4 days, the cells were rinsed with PBS, fixed in 4% paraformaldehyde, permeabilized with 0.15% Triton X-100 and incubated with PBS containing 0.1M glycine for 10 min. Cells were blocked for 30 min with 10% goat serum in PBS, incubated with mouse anti-α-SMA, to a final IgG concentration of 20 μg/ml, in 1% BSA/PBS for 1hr at room temperature (RT), and washed three times with 0.1% BSA/PBS for 10 min each. The cells were then incubated in goat anti-mouse FITC or sheep anti-mouse Texas Red (1:100) in 1% BSA/PBS for 1 hr at RT, washed three times for 10 min with 0.1% BSA in PBS and mounted with Vectashield. Collagen gels were rinsed with PBS, fixed in 4% paraformaldehyde for 2 hr, washed three times 30 min each with PBS, and incubated for an additional 30 min in PBS containing 0.1M glycine. This treatment was followed by incubation at 4° C. overnight in 15% sucrose and then incubated under the same conditions in 30% sucrose. After a brief rinse with PBS, the gels were frozen in OCT, sections prepared and collected on gelatin-coated slides, rinsed with PBS, fixed in 4% paraformaldehyde for 10 min, and then incubated again in PBS containing 0.1M glycine for 10 min. This was followed by blocking for 30 min with 10% goat serum in PBS, incubation in primary and secondary antibody as described above, and mounting with Vectashield.
# α-SMA [3] = assay: Immunoblotting for α-SMA in fibroblast extracts; assay type: cell-based, chicken; settings: 750 ng/ml; versus untreated or C-peptide treated cells
# Method: Plates of fibroblasts were treated as described previously, with 750 ng/ml cCAF or 2.5 ng/ml TGFβ. To block TGFβ, or cCAF activity, anti-cCAF (3 μl) or anti-TGFβ (1 μl) antibody was pre-incubated in 1 ml media for 1 hr at room temperature before being added to cells. After 4 days of treatment, protein extracts were prepared in 1 ml 150 mM RIPA buffer containing protease inhibitors. Protein concentrations were determined using the DC protein assay kit and samples were adjusted to contain equal amounts of protein. SDS-PAGE was performed on 7.5% separating Doucet gels (Doucet and Trifaro, 1988). Protein transfer to nitrocellulose was performed using a wet-transfer apparatus (Bio-Rad) at 100V for 45 min. The membranes were blocked for 1 hr in 5% milk in TTBS and then incubated overnight at 4° C. in mouse anti-α-SMA, to a final IgG concentration of 5 μg/ml, in 1% milk in TTBS. The membranes were washed 3 times for 20 min each with TTBS, incubated in anti-mouse HRP at 1:10,000 in 1% milk for 1hr and washed as above, and the bands visualized using the ECL.
# [4] = tested on: Full-thickness excision wounds on the underside of the wings of 2-week-old chicks; assay: Wounding experiment: closure of excision wounds; assay type: in vivo, chicken; settings: 1 μg every other day
# Method: Full-thickness excision wounds (approximately 0.5×0.5 cm) were made, using a scalpel blade, on the underside of the wings of 2-week-old chicks. The left wing was treated with vehicle alone (water), and the right wing with […] cCAF [90 nM]. The wounds were photographed immediately after wounding and then covered with Biocclusive bandage. 50 μl vehicle (water) or cCAF was deposited through the bandage onto the wound using a 30-gauge needle. This procedure was repeated the next day and every other day thereafter. On days 3, 5 and 7, the bandages were removed and the wounds were photographed before replacing the bandages and applying the treatment again.
# [5] = tested on: granulation tissue of excision wounds; assay: Histology of excision wounds (Masson Trichrome); assay type: in vivo, chicken; settings: 1 μg cCAF every other day; versus vehicle
# Method: At the specified time points, chickens were euthanized with sodium pentobarbitol. The wounded wings were collected and fixed for 18 hrs in 4% paraformaldehyde and decalcified for 3 days in 5% formic acid, 2.5% formaldehyde at 4° C. The tissue was embedded in paraffin and sectioned. Sections were stained with Masson Trichrome to visualize interstitial collagen. Other sections were immunolabeled for α-SMA. Sections were deparaffinized with 3×15 min washes in Hemo-De and rehydrated in 5 min washes of ethanol (100%, 95%, 70%, 50%, 30%). After rinsing with PBS, sections were fixed in 2% paraformaldehyde 1 hr. General autofluoresence and non-specific staining were blocked by 30 min in 0.1M glycine in PBS, followed by 30 min in 1% Evans Blue in PBS to quench red blood cell autofluorescence. Sections were incubated with α-SMA antibody in 1% BSA in PBS (1:50) for 2 hr at room temperature. After 3×10 min washes in 0.1% BSA in PBS, the sections were incubated for 40 min with anti-mouse Alexa antibody in 1% BSA in PBS (1:200). They were then washed and mounted with Vectashield.
# [6] = tested on: chicken chorioallantoic membrane (CAM); settings: cited from earlier work
molecule,measurement,setting,value
B1,time required for the decrease in cell numbers to be detected,[1],2 to 3 days
same,effect on fibroblast growth / cell numbers,"[1]; 3 days treatment, 2% donor calf serum",suppresses fibroblast proliferation in a dose-dependent pattern
same,dose of greatest (maximum) suppression of fibroblast proliferation,"[1]; 3 days treatment, increasing doses of cCAF",750 ng/mL and 500 to 750 ng/mL
same,time of greatest suppression of proliferation,"[1]; after plating, not shown",2 days
same,suppression of fibroblast proliferation compared to untreated cells,"[1]; fibroblasts cultured in the presence of serum (2% donor calf serum), p<0.01",25%
same,fibroblast growth relative to untreated cells,[1]; of untreated cells,about 75%
same,necrotic cell death,CEFs,does not stimulate cell necrosis; also recorded: does not cause cells to undergo necrosis
same,α-SMA immunolabeling of sections of fibroblast-seeded collagen gels,α-SMA [2]; versus control gels,more cells with fibers staining for α-SMA than control gels
same,α-SMA immunolabeling of cultured fibroblasts,α-SMA [2]; versus untreated control cells,more fibroblasts are stained for α-SMA; also recorded: many more cells showing intense staining for fiber bundles
same,α-SMA levels by immunoblot,α-SMA [3],much higher levels of α-SMA; also recorded: increased levels of α-SMA
same,wound closure at day 3 (days 0-3),"[4]; topical, versus vehicle (H2O) on contralateral wing",closed to a significantly greater degree than the vehicle-treated wounds
same,wound closure at day 5,[4]; versus vehicle,closure of the control wounds was still less than that of the experimental wounds
same,wound closure at day 7,[4]; versus vehicle,completely closed
same,"density of granulation tissue, days 3 and 5",[5],denser repair tissue than the control wounds; also recorded: appears more dense earlier in wound healing
same,granulation tissue at day 7,[5],minimal; also recorded: appear to be already remodeling
same,angiogenesis in the CAM,"[6]; high concentrations, in the absence of leukocyte chemotaxis",stimulates blood vessel sprouting from the preexisting vessels of the CAM
same,leukocyte chemotaxis in the CAM,[6]; low doses,chemotactic for monocyte/macrophages and lymphocytes
